Experimental data published in patent US20210268105A1 (HEXAMER THERAPEUTICS, published 2021).
Where no end group is shown, it is not given here.

Target: the molecule itself
Assay: Blue native PAGE of the peptide dissolved in 1xPBS; self-association into a hexamer
Method: The peptide (SEQ ID NO: 15) was synthesized by SPPS and lyophilized for storage. The peptide was dissolved in 1×PBS and then loaded onto a blue native PAGE gel and size fractionated by electrophoresis through a 4-16% acrylamide gradient gel for 90 min at 150 V (constant). The gel was fixed in methanol:acetic acid:water and then rinsed in the same solution to destain. Lane 1 is BSA as a reference protein, and Lane 2 is the self-assembled hexamer. MW standards (which are not shown) are on the right. BSA is 66 kDa and the hexamer has an expected size of 20.7 kDa.
Experiments were performed to confirm that a hexamer forms following hydration of the monomer, elucidate the solubility of epitope coupled hexamers, determine the maximum density of epitope coupling, and confirm that a hexameric structure is maintained following coupling of the epitope. A representative peptide, SEQ ID NO: 15, was synthesized using the protocols previously described. A methionine and aspartic acid residue were placed on the N-terminus, and the methionine residue was protected by acetylation to form Acetyl-MD-(SEQ ID NO: 15). Following SPPS, the peptide was lyophilized for storage. To show self-assembly, the peptide was dissolved in 1×PBS buffer, incubated at room temperature for 5 min, and loaded onto a Blue NativePAGE Novex Bis-Tris Gel using the system purchased from Life Technologies. […]

B1: Acetyl-MD-(SEQ ID NO: 15) (peptide)
peptide: Ac-MDLRSIGKDLRSIGRDLRSIGKDLRSIGRD
notes: After it is dissolved in 1xPBS, six copies self-assemble into a hexamer (expected 20.7 kDa); also called self-assembled peptide
Q: Does B1 bind?
A: binds
